What was measured:
NPM-ALK [1] = assay: NPM-ALK protein expression in MEF NPM-ALK Tet-Off cells after retroviral infection, Western blot; assay type: cell-based
Procedure: FIG. 9. Anti-ALK siRNA inhibits NPM-ALK-mediated transformation of MEF cells. (A) Suppression of NPM-ALK expression leads to down-regulation of known downstream targets of ALK. MEF NPM-ALK Tet-Off cells were infected with pSRG-A5 virus, transduction efficiency was assessed 72 hours post-infection by FACS analysis of GFP (40%). pSRG-A5-infected cells were further enriched by selection with 1 mg/ml puromycin for 1 week (90%). NPM-ALK expression was inhibited by doxycyclin withdrawn. Protein expression was evaluated culturing (72 hr) semi-confluent cells in absence of doxycyclin. (B) shRNA A-5 expression leads to G0/G1 cell cycle arrest. DNA content analysis was performed in cells grown to confluence and kept in 0.2% serum medium for 72 hours in presence of absence of doxycyclin. Cells were then listed and analysed by Western blotting with indicated antibodies. […] Tumor growth was monitored weekly for 4 weeks. […]
Retroviral supernatants were produced by co-transfection of GP-293 packaging cells with pSRGAx and pVSV-G (Clontech, Palo Alto, Calif., USA); virus-containing supernatants were collected at 48, 72 and 90 hours, filtrated and concentrated by centrifugation. […] Transfection and infection efficiencies were calculated using the percentage of GFP positive cells, identified using fluorescence microscopy (Leica IM RE2) or flow cytometry (FACSCalibur, BD Biosciences, San Josè, Calif., USA). […]

MEF-NPM-ALK cells = assay: Morphology of MEF-NPM-ALK cells after infection; assay type: cell-based
Source text: Since NPM-ALK expression in MEF cells leads to relevant morphological changes including cell elongation, bipolarized formations and loose plate attachment, the effect of inhibition of NPM-ALK expression on the phenotype of these cells was then studied. […] Furthermore, highly enriched GFP^+, puromycin resistant pSRG-A5MEF-NPM-ALK cells injected into athymic Nu/Nu mice (1×10^6 cells) grew poorly compared to control infected cells (FIG. 9 D).

NPM-ALK [2] = assay: Co-transfection of pSUPER shRNA vectors with Pallino-NPM-ALK in HEK-293T cells, Western blot; assay type: cell-based; settings: HEK-293T co-transfected with Pallino-NPM-ALK; after 48 hrs from transfection
Procedure: FIG. 8. Selection of anti-ALK shRNA. […] HEK-293T were co-transfected with Pallino NPM-ALK (2 μg) and one of six different pSUPER vectors carrying shRNA specific for ALK sequences (pS-A1-6)(8 μg). […] (pS-p53) (B) ALK5 (A5) inhibits ATIC-ALK protein expression. HEK-293T were co-transfected with Pallino ATIC-ALK and pSUPER-ALK shRNA interfering sequences as above. Expression of ATIC-ALK protein was determined by Western blot analysis as described above. (C) ALK5 (A5) inhibits ALK receptor (ALK-R) protein expression. HEK-293T cells were co-transfected with Pallino ALK-R and pSUPER-ALK shRNA interfering sequences as above.
(§1) Transfections of HEK-293T, GP-293, and MEF Tet-Off cells were performed with Effectene reagent (Qiagen, Valencia, Calif., USA), according to the manufacturer's instructions.
For Western Blot analysis, cells were lysed (50 mM Tris-HCl, pH 7.4, 150 mM NaCl, 0.1% Triton X-100, 5 mM EDTA, 1 mM Na3VO4, and 1 mM phenylmethyl sulfonyl fluoride and protease inhibitors). Total protein lysates (20 μg) were electrophoresed in SDS-PAGE gel and transferred onto nitrocellulose membranes. The filters were first blocked (5% low fat milk in PBS with 0.1% Tween 20; 1 h at RT), and then incubated with the primary antibodies for 1 hour at room temperature. […]

TS cells = assay: Cell death of sorted GFP-positive TS cells by microscopy; assay type: cell-based, human; settings: sorted TS cells (>95% GFP), 24 hr after cell sorting
Procedure: FIG. 11. Anti-ALK siRNA inhibits growth and induces cell death in TS cells. ShRNA A5 leads ALK+ ALCL cells to cell death. Human TS cells were transduced with pSRG or pSRG-A5 constructs, and […], GFP-positive cells were sorted using MoFo sorter. (A) Highly enriched GFP+ cells (>95%) were evaluated (24 hours after sorting) using a light or fluorescent inverted microscope, (bright field: left panels). 5×10^3/well cells were plated (96-well plate) and the percentage of alive cells was calculated overtime (B). Total number of live cells was also calculated at day 3, 4 and 6 after sorting (C).
To study whether ALK siRNA could promote cell death, highly enriched A5-GFP-positive TS cells by cell sorting (>95% GFP) were evaluated by microscopy. […] These findings were confirmed with enumeration of viable cells by trypan blue exclusion (FIG. 11B) and proliferating cell quantitation using total cell counts (FIG. 11C).

ALK receptor (ALK-R) = assay: Co-transfection of pSUPER shRNA vectors with Pallino ALK-R in HEK-293T cells, Western blot; assay type: cell-based; settings: transfected HEK-293T cells
Procedure: (§2) FIG. 8. Selection of anti-ALK shRNA. […] HEK-293T were co-transfected with Pallino NPM-ALK (2 μg) and one of six different pSUPER vectors carrying shRNA specific for ALK sequences (pS-A1-6)(8 μg). Cells were lysed 72 hours post-transfection and immunoblotted with the indicated antibodies. −=no transfection; A pSUPER-shRNA carrying a p53 specific sequence was used a unrelated control. (pS-p53) (B) ALK5 (A5) inhibits ATIC-ALK protein expression. HEK-293T were co-transfected with Pallino ATIC-ALK and pSUPER-ALK shRNA interfering sequences as above. Expression of ATIC-ALK protein was determined by Western blot analysis as described above. (C) ALK5 (A5) inhibits ALK receptor (ALK-R) protein expression. HEK-293T cells were co-transfected with Pallino ALK-R and pSUPER-ALK shRNA interfering sequences as above.
as §1
(§3) For Western Blot analysis, cells were lysed (50 mM Tris-HCl, pH 7.4, 150 mM NaCl, 0.1% Triton X-100, 5 mM EDTA, 1 mM Na3VO4, and 1 mM phenylmethyl sulfonyl fluoride and protease inhibitors). Total protein lysates (20 μg) were electrophoresed in SDS-PAGE gel and transferred onto nitrocellulose membranes. […]

ATIC-ALK = assay: Co-transfection of pSUPER shRNA vectors with Pallino ATIC-ALK in HEK-293T cells, Western blot; assay type: cell-based; settings: transfected HEK-293T cells
Procedure: as §2, §1, §3

B1: A5: short hairpin oligonucleotide against cytoplasmic domain of ALK, SEQ ID NO: 5; in pSUPER vector (nucleic acid)
chain: GATCCCCGGGCGAGCTACTATAGAAATTCAAGAGATTTCTATAGTAGCTCGCCCTTTTTGGAAA
Question: For B1, which NPM-ALK protein expression (NPM-ALK [1]; MEF NPM-ALK Tet-Off after doxycyclin withdrawal, proportional to percentage of GFP positive cells) is on record?
Answer: significant down-regulation

Question: And the “NPM-ALK level in MEF-NPM-ALK cells after infection” value (NPM-ALK [1]; MEF-NPM-ALK cells)?
Answer: very low levels

Question: What about the “cellular morphology (transformed phenotype)” value (MEF-NPM-ALK cells) of the same molecule?
Answer: regained their normal pre-transformed cellular features

Question: What about the “down-regulation of the protein level of NPM-ALK” value (NPM-ALK [2]) of the same molecule?
Answer: > 90%

Question: And the “cells with shrunken, picnotic nuclei lacking detectable GFP expression” value (TS cells)?
Answer: > 50%

Question: What about the “expression of ALK receptor” value (ALK receptor (ALK-R)) of the same molecule?
Answer: successfully abrogate expression

Question: And the “expression of ATIC-ALK” value (ATIC-ALK)?
Answer: successfully abrogate expression
